Data taken from patent US20040248211A1, “ICAM-related protein” (priority 1992, published 2004).
Residue numbers refer to the chain shown, from its start.

Experiments:
[1] = system: SKW3 cells; test: Adhesion of PMA-activated SKW3 cells to plate-bound protein; format: cell-based, human; details: PMA-treated cells
Procedure: The partially purified shICAM-R protein was assayed for binding to SKW3 cells that were pretreated with phorbol ester as described in Example 7 to activate LFA-1-dependent adhesion. The ICAM-R protein was coated onto 96-well Immulon 4 (Dynatech) plates after adjusting the lectin eluate to 25 mM carbonate pH 9.6 and incubated overnight at 4° C. The plates were washed two times with PBS, blocked for 30 minutes at 37° C. with 200 ul/well PBS, 1% BSA, and washed again with PBS before adding cells. SKW3 cells were washed in serum-free RPMI (Gibco), labelled with Calcein-AM (Molecular Probes), and stimulated with PMA. Cells were then added to the plates and incubated for 1 hour at 37° C. The plates were inverted in prewarmed PBS, 1% BSA and were incubated for 30 minutes. The plates were then removed and half of the contents of each well was aspriated. The plates were then scanned with a fluorescence microscope and an automated fluorescence reader.
Peak fractions from wtHis6, E37His6 and mock transfectants were concentrated about 6.5 fold using Centricon 30 (Amicon) centrifugation units. The resultant concentrates were adjusted to equal vols. (0.34 ml) using PBS-D. Control soluble ICAM-R (15 ug/ml) (Example 9) in carbonate buffer pH 9.6 or in buffer D with 40 mM imidazole were made up. […]

[2] = target: T1, soluble baculovirus produced human ICAM-R (Homo sapiens, UniProt P32942); test: ELISA binding of recombinant ICR-1.1 antibodies
T1 sequence (P32942 30-485 limits assumed): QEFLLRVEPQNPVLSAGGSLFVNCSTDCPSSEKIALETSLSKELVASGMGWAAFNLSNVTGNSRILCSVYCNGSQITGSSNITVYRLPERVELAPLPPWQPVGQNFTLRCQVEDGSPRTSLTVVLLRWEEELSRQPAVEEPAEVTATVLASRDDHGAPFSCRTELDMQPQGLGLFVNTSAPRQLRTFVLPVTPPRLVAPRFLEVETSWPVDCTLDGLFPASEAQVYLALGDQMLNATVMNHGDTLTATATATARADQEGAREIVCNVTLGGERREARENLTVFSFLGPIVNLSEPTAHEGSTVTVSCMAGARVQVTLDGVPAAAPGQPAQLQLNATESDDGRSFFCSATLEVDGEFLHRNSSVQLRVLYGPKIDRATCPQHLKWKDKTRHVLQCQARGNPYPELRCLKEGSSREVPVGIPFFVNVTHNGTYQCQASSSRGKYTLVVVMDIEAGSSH

[3] = target: T2, baculovirus-produced soluble human ICAM-R (Homo sapiens, UniProt P32942); test: ELISA binding of recombinant ICR-8.1 antibodies; details: humanized/chimeric ICR-8.1 chain combinations, human IgG4/kappa
T2 sequence (P32942 30-485 limits assumed): T1 sequence (P32942 30-485 limits assumed)

[4] = system: T cells; test: IL-2 production in response to anti-CD3 and ICAM-R proteins; format: cell-based, human; details: in comparison to the HSA control
[5] = system: Human peripheral blood lymphocytes; test: Costimulation of lymphocytes by soluble ICAM-R; format: cell-based
Procedure: shICAM-R (Example 9) was assayed for the ability to costimulate human lymphocyte activation. Human peripheral blood lymphocytes (PBL) were obtained by Ficoll-Hypaque centrifugation and 2×10^5 cells per well were incubated in the presence of either media, plate bound shICAM-R, plate bound anti-CD3 (OKT3) or a combination of plate bound anti-CD3 and shICAM-R. At 17 hours and 4 days after initiation of culture cells were removed, stained with monoclonal antibodies to human lymphocyte activation antigens and analyzed by flow cytometry.

[6] = system: JY cells (LFA-1) binding to ICAM-R/IgG; test: JY cell binding to plate-bound ICAM-R/IgG chimeras; format: cell-based, human
Procedure: The binding of the lymphoblastoid cell line JY, which expresses LFA-1, to wild type ICAM-R/IgG chimera was examined in the presence and absence of LFA-1 specific antibodies or antibodies specific for either domain 1 or 2 of ICAM-R. ICAM-R chimeras were diluted to 10 μg/ml in 0.1M Na-carbonate/bicarbonate buffer pH 9.6 and used to coat triplicate wells (50 μl/well) of an Immulon 4 96-well plate (Dynatech) overnight at 4° C. Wells were washed three times in PBS and blocked with 1% BSA (in PBS) for 1 hour at 37° C. JY cells were labeled with the fluorescent dye Calcein (Moleculat Probes, Eugene, Oreg.) at 8 μg/ml at 37° C. in serum free RPMI for 20 minutes. Cells were washed with RPMI and resuspended in binding buffer (0.2% HSA in RPMI. Approximately 1×10^5 cells were added to each well containing the binding buffer with or without antibody (20 μg/ml of ICR-2.1, ICR-1.1, ICR-3.1, ICR-5.1, ICR-7.1, ICR-8.1, ICR-4.2, ICR-6.2, ICR-9.2, TS1/22 or 60.3) so that the final volume was 0.35 ml. Plates were incubated at 37° C. in the dark for 45 minutes and input fluorescence was quantitated with a fluorescence reader (Millipore) in a 96-well format. Unbound cells were removed by inverting the plate in 0.1% BSA in PBS for 20 minutes. Bound cells were quantitated by measuring the remaining fluorescence and presented as percent input minus background binding to wells coated with BSA alone.

B1: wtHis6: wild type histidine tagged soluble ICAM-R extracellular domain (protein)
chain: QEFLLRVEPQNPVLSAGGSLFVNCSTDCPSSEKIALETSLSKELVASGMGWAAFNLSNVTGNSRILCSVYCNGSQITGSSNITVYGLPERVELAPLPPWQPVGQNFTLRCQVEGGSPRTSLTVVLLRWEEELSRQPAVEEPAEVTATVLASRDDHGAPFSCRTELDMQPQGLGLFVNTSAPRQLRTFVLPVTPPRLVAPRFLEVETSWPVDCTLDGLFPASEAQVYLALGDQMLNATVMNHGDTLTATATATARADQEGAREIVCNVTLGGERREARENLTVFSFLGPIVNLSEPTAHEGSTVTVSCMAGARVQVTLDGVPAAAPGQTAQLQLNATESDDGRSFFCSATLEVDGEFLHRNSSVQLRVLYGPKIDRATCPQHLKWKDKTRHVLQCQARGNPYPELRCLKEGSSREVPVGIPFFVNVTHNGTYQCQASSSRGKYTLVVVMDIEAFSSGPGHHHHHH
- adhesion of SKW3 cells to plate bound protein [1]: functions as an adhesive ligand for SKW3 cells

B2: HuVK: humanized ICR-1.1 kappa chain V region (antibody, V domains shown)
VL: GARCDIQMTQSPSSLSASVGDRVTITCSASSSVSYIYWYQQKPGKAPKLLIYLTSNLASGVPSRFSGSGSGTDFTLTISSLQPEDFATYYCQQWKSIPLTFGQGTKLEIK
- deficit in binding compared with murine progenitor chain, ICR-1.1 versions [2]: 2 fold

B3: MuVHVST/MuVK: chimeric ICR-8.1, MuVHVS heavy chain with Thr28, murine VK (antibody, V domains shown)
VH: EVQLQQSGPELVKPGASVKISCKASGYTFTDCIILWVKQSHGKGLEWIGKINPYFGTTTYNLKFKGKATLTVDKSSSTAHMQLNSLTSEDSAVYYCARKEAYPDAMDYWGQGTSVTVSS
VL: DAVMTQTPLSLPVSLGDQASISCRSSQSLVHSNGDTYLHWYLQKPGQSPQLLIYKVSNRFSGVPDRFSGSGSGTDFTLKLSRVEAEDLGVYFCSQSTHVPYTFGGGTKLEIK
- binding to ICAM-R (ELISA), recombinant ICR-8.1 antibodies [3]: equivalence in binding to ICAM-R

B4: HuVH/MuVK: ICR-8.1 humanized VH (Ala71) with murine VK (antibody, V domains shown)
VH: QVQLVQSGAEVKKPGASVKVSCKASGYTFTDCIILWVRQAPGQGLEWMGKINPYFGTTTYNLKFKGRVTITADTSTSTAYMELSSLRSEDTAVYYCARKEAYPDAMDYWGQGTLVTVSS
VL: B3 VL
- binding to ICAM-R (ELISA), recombinant ICR-8.1 antibodies [3]: equivalence in binding to ICAM-R

B5: HuVHV/MuVK: ICR-8.1 humanized VH with Thr28 and Val71, murine VK (antibody, V domains shown)
VH: B4 VH with A72V
VL: B3 VL
- binding to ICAM-R (ELISA), recombinant ICR-8.1 antibodies [3]: equivalence in binding to ICAM-R

B6: miJuVH/MuVK: ICR-8.1 miHuVH (Ala60, Gln61, Gln64) heavy chain with murine VK (antibody, V domains shown)
VH: B4 VH with N61A, L62Q, K65Q
VL: B3 VL
- binding to ICAM-R (ELISA), recombinant ICR-8.1 antibodies [3]: equivalence in binding to ICAM-R

B7: HuVH: humanized ICR-1.1 heavy chain V region (Met48) (antibody, V domains shown)
VH: GVQSQVQLVQSGAEVKKPGASVKVSCKASGYTFTVYWMHWVRQAPGQGLEWMGYINPNTDYTEYNQRFQKRVTITADTSTSTAYMELSSLRSEDTAVYYCARWGGNSYGLDYWGQGTLVTVSS
- deficit in binding compared with murine progenitor chain, ICR-1.1 versions [2]: 2-3 fold

B8: shICAM-R: soluble human ICAM-R truncated at amino acid 457, baculovirus expressed (protein)
chain: T1 sequence (P32942 30-485 limits assumed) with R86G, D114G, P328T, G453F
- IL-2 production in response to CD3 mAb [4]: enhanced IL-2 production
- adhesion of SKW3 cells to plate bound protein [1]: demonstrated adhesion of phorbol ester-activated lymphocytes
- expression of activation antigens ICAM-1, IL-2 receptor, transferrin receptor ([5]; 4 days, plate bound anti-CD3 0.5 ug/well and protein 100 ng/well, versus anti-CD3 alone): elevated levels of the activation antigens ICAM-1, IL-2 receptor and transferrin receptor
- expression of activation antigens ICAM-1, IL-2 receptor, transferrin receptor ([5]; protein 100 ng/well alone, versus media alone): no increased levels of these activation antigens

B9: T38/A: ICAM-R/IgG chimera, Thr38 changed to Ala (protein)
chain: T1 sequence (P32942 30-485 limits assumed) with T38A, R86G, D114G, P328T, G453F
modifications: left off: a dimerising Fc or GST
notes: ICAM-R/IgG chimera, Thr38 changed to Ala
- reduction in JY cell adhesion to variant ICAM-R/IgG chimera [6]: 70-80%

B10: L121/P: ICAM-R/IgG chimera with domain 2 mutation L121/P (protein, UniProt P32942 30-485, looked up, variant L121P)
extracellular domain: T1 sequence (P32942 30-485 limits assumed) with L121P
modifications: extracellular domain fused to IgG Fc
notes: ICAM-R/IgG chimera with domain 2 mutation L121/P
- LFA-1 mediated JY cell adhesion to variant ICAM-R/IgG chimera ([6]; chimera coated at 10 μg/ml): wild type levels of LFA-1 mediated binding
